Consider three proteins from PMC8037807, “The Effect of Oxidized Dopamine on the Structure and Molecular Chaperone Function of the Small Heat-Shock Proteins, αB-Crystallin and Hsp27” (International Journal of Molecular Sciences, 2021).

Data set [1] deals with the molecule itself. As to the kind of experiment: cross-linking; 15 μM αBc or Hsp27 incubated with 15 or 75 μM DA in 50 mM phosphate, 150 mM NaCl, pH 7.4, 24 h, 37 °C, aerobic; excess DAox removed (10 kDa filter); SDS-PAGE with DTT and boiling.
Data set [2] concerns the molecule itself. The experiment in a line: cross-linking; lysine-dimethylated and non-methylated sHsps reacted with a 0, 1, 5, 7.5, 10 or 20 molar excess of DA, 37 °C, 24 h, 50 mM phosphate buffer, pH 7.4; SDS-PAGE, monomer band quantified.
Data set [3] deals with the molecule itself. As to the kind of experiment: negative-stain transmission electron microscopy; 30 μM αBc or Hsp27 incubated with 0 or 150 μM DAox; particle diameters measured.

B1: oxidized dopamine-modified αB-crystallin (natural protein, human, UniProt P02511 1-175, looked up)
chain: MDIAIHHPWIRRPFFPFHSPSRLFDQFFGEHLLESDLFPTSTSLSPFYLRPPSFLRAPSWFDTGLSEMRLEKDRFSVNLDVKHFSPEELKVKVLGDVIEVHGKHEERQDEHGFISREFHRKYRIPADVDPLTITSSLSSDGVLTVNGPRKQVSGPERTIPITREEKPAVTAAPKK
modifications: modified and covalently cross-linked by oxidized dopamine (DAox); lysine residues involved in the cross-links; sites not mapped
notes: αB-crystallin (HspB5), human small heat-shock protein; monomeric subunit mass 20.2 kDa; same protein as m1; Made at several molar ratios of αBc to DA (1:1, 1:5, 1:10, 1:20, 1:30); All ratios are kept as one molecule; the ratio is named in each row; also called αBc:DAox; DAox-modified αBc
As for B1, in data set [1], the binding result was “binds”.

B2: methylated αBc reacted with DAox (natural protein, human, UniProt P02511 1-175, looked up)
chain: B1 chain
modifications: dimethylation of all lysine residues (and the amino terminus), confirmed by mass spectrometry; then modified by oxidized dopamine (DAox)
notes: αB-crystallin (HspB5), human small heat-shock protein; same protein as m1; Reacted with a 0, 1, 5, 7.5, 10 or 20 molar excess of DA; also called lysine-dimethylated αBc
Regarding B2, the binding result in data set [2] is “binds”.

B3: αB-crystallin (natural protein, human, UniProt P02511 1-175, looked up)
chain: B1 chain
notes: αB-crystallin (HspB5), human small heat-shock protein; monomeric subunit mass 20.2 kDa; Lys174 and Lys175 at the extreme C-terminus; Heterogeneous large oligomer in solution; also called HspB5; native αBc; source: expressed and purified as previously described [9,40,41]
In the case of B3, in data set [3], the binding result was “binds”.
